Source: paper PMC3621763, “Adenoviral Gene Transfer of PLD1-D4 Enhances Insulin Sensitivity in Mice by Disrupting Phospholipase D1 Interaction with PED/PEA-15” (PLoS ONE, 2013)

Target: T1, PED/PEA-15 over-expressed in transgenic Tg_(Ped/pea-15) mice (UniProt Q15121 1-130)
T1 construct: PED/PEA-15 expressed from the transgene of Tg_(Ped/pea-15) mice; The precipitate from transgenic muscle holds the transgene's product together with the endogenous mouse protein; source: transgenic mice with ubiquitous over-expression of Ped/pea-15, tibialis skeletal muscle lysate
T1 sequence (Q15121 whole entry): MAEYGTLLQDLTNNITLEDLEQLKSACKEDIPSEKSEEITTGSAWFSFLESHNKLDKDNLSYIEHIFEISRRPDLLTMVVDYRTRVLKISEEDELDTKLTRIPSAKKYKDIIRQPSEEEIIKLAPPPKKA
Assay: co-IP; tibialis skeletal muscle lysate (0.5-1 mg) of Wt and Tg_(Ped/pea-15) mice, precleared with pre-immune serum, anti-PED/PEA-15 antibody overnight at 4°C, protein A sepharose, blot with anti-PLD1
Settings: partners not purified

B1: Phospholipase D1 (PLD1), endogenous in mouse skeletal muscle (enzyme, UniProt Q9Z280 1-1074, looked up)
chain: MSLKSETRVNTSTLQKIAADMSNLIENLDTRELHFEGEEVEYDASPGDPKAQEGCIPFSSIYNTQGFKEPNIQTYLSGCPIKAQVLEVERFTSTSRVPSINLYTIELTHGEFTWQVKRKFKHFQEFHRELLKYKAFIRIPIPTKRHTFRRQNVKEEPREMPSLPRSSENAIQEEQFFGRRKQLEDYLTKILKMPMYRNYHATTEFLDVSQLSFIHDLGPKGLEGMIMKRSGGHRIPGVNCCGHGRACYRWSKRWLIVKDSFLLYMKPDSGAIAFVLLVDKEFRVKVGRKETETKYGLRIDNLSRTLILKCNSYRHARWWGGAIEEFIRKHGADFLKDHRFGSYAALHENTLAKWYVNAKGYFEDIANAMEEASEEIFITDWWLSPEIFLKRPVVEGNRWRLDCILKRKAQQGVRIFIMLYKEVELALGINSEYSKRTLMRLHPNIKVMRHPDHVSSSVYLWAHHEKLVIIDQSVAFVGGIDLAYGRWDDNEHRLTDVGSVKRVTSGLSLGSLTAASVESMESLSLKDKHEFHKKEPISKIVDETDMKLKGIGKSRKFSKFSLYRQLHRHHLHNADSISSIDSTSSYFSHCRSHQNLIHGLKPHLKLFHPSSESEQGLTRHSTDTGSIRSVQTGVGELHGETRFWHGKDYCNFVFKDWVQLDKPFADFIDRYSTPRMPWHDIGSVVHGKAARDVARHFIQRWNFTKIMKPKYRSLSYPFLLPKSQATAHELRYQVPGAVPAKVQLLRSAADWSAGIKHHEESIHAAYIHVIENSKHYIYIENQFFISCADDKVVFNKVGDRIAQRILKAHREGQRYRVYIVIPLLPGFEGDISTGGGNALQAIMHFNYRTMCRGESSILEQLKPELGNKWINYISFCGLRTHAELEGNLVTELIYVHSKLLIADDNTVIIGSANINDRSMLGKRDSEMAVIVQDTETVPSVMDGKEYQAGRFARDLRLECFRLVLGYLSDPSEDLQDPVSDKFFKEIWVSTAARNATIYDKVFRCLPNDEVHNLIQLRDFINKPILAKEDALRAEEELRKIRGFLVQFPLYFLSEENLLPSVGTKEAIVPMEVWT
notes: Phospholipase D1, endogenous protein of mouse skeletal muscle; Detected by blot with an anti-PLD1 antibody in the anti-PED/PEA-15 precipitate; source: endogenous, tibialis skeletal muscle lysate of Wt and Tg_(Ped/pea-15) mice
- fold increase of the co-precipitated interaction against Wt mice: 4 fold
